Data from article PMC2363969, “gp100/pmel17 and tyrosinase encode multiple epitopes recognized by Th1-type CD4+T cells” (British Journal of Cancer, 2001).
pIC50: −log10 of the molar value.

Key:
[1] = molecular target: HLA-DRB1*0401 (human); test: radioligand binding
[2] = molecular target: HLA-DRB1*0404 (human); test: radioligand binding

pIC50 [1]: 7.77 | pIC50 [2]: 7.51
Substance: tyrosinase 365-381D (peptide)
